In article PMC7932536 one finds prevalence of oligomer rich observation fields of Aβ 42 under TEM, 0 to 72 hr of preincubation (delayed fibrillization) and thioflavin T fluorescence assay of Aβ 42 fibrillization (time for which oligomeric or small protofibrillar forms were kept before the plateau) data, which are given here for one substance.

Test [1] has as its target Human amyloid beta (Aβ) 42 peptide (human) (UniProt P05067).
Test [2] shares this target. This is another data set of the same source.

Sequence of SAMP8 type Serpina3n (Q91WP6 21-418): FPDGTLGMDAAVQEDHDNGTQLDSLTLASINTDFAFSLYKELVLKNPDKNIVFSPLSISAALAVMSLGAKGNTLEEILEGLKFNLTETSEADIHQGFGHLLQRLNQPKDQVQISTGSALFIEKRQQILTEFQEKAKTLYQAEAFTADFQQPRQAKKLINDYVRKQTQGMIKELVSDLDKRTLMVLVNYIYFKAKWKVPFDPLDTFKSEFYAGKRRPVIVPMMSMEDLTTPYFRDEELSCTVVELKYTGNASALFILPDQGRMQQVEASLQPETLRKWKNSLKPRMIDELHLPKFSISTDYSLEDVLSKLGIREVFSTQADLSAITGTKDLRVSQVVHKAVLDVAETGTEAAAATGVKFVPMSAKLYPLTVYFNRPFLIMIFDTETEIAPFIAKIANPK

For the substance “SAMP8 type Serpina3n (from UniProt Q91WP6 21-418) (natural protein)”, in test [1], the prevalence of oligomer rich observation fields of Aβ 42 under TEM, 0 to 72 hr of preincubation (delayed fibrillization) amounted to 72 h. The thioflavin T fluorescence assay of Aβ 42 fibrillization (time for which oligomeric or small protofibrillar forms were kept before the plateau) in test [2] stood at 13 h.
